Data: PMC4357707 (Nucleic Acids Research, 2015)
Where a chain is given by its changes, count along the chain named.

Tests used:
HEN1 wt = biological target: T1, HEN1 wt (Arabidopsis thaliana, UniProt Q9C5Q8 1-942); experiment: EMSA
T1 sequence: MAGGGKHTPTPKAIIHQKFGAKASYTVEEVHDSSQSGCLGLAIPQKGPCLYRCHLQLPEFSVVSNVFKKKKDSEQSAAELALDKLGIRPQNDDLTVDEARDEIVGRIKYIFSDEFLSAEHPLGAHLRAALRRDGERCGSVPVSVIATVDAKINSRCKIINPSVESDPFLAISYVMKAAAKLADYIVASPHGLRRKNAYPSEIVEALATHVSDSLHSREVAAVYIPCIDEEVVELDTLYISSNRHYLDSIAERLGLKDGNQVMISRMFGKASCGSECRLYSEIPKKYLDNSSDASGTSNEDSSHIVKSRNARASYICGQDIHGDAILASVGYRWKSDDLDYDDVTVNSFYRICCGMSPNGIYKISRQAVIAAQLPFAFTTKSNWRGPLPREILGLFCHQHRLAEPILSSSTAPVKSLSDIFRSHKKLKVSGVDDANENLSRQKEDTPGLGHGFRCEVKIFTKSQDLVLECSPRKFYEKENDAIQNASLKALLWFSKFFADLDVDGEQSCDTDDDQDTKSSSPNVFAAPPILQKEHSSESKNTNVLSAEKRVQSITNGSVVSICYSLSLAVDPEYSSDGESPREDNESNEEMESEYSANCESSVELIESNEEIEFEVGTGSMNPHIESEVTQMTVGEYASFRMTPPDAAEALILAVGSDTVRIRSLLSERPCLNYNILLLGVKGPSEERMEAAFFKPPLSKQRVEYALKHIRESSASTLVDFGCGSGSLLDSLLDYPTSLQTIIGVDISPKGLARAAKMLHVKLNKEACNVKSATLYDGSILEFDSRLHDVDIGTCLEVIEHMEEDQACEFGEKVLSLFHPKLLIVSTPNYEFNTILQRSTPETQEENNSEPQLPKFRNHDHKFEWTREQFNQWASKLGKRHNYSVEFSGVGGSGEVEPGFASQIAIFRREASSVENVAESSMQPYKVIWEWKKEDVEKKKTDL

HEN1-K22A = biological target: T2, HEN1-K22A (Arabidopsis thaliana, UniProt Q9C5Q8 1-942, K22A); experiment: EMSA
T2 sequence: T1 sequence with K22A

B1: miR173/miR173* (dsRNA)
RNA 1: UUCGCUUGCAGAGAGAAAUCAC
RNA 2: GAUUCUCUGUGUAAGCGAAAG
Question: With B1 as the binder, how does the Kd (HEN1 wt) read?
Answer: 0.43 ± 0.05 nM

Question: Does B1 bind (HEN1-K22A)?
Answer: binds
